Experimental data as given in patent publication US20250074943A1 (Amgen, published 2025).
Each block holds one binder with its values, some of them ahead of it. Numbered stars: 1 amine (or outer) side, 2 acyl side, 3 side chain; on linkers, the order of the positions; unused ones are H or OH. Bridge positions count the residues as written; N and C are the ends. Primed or numbered codes have the meaning given here. Ends that are not written are not given here. Ttds = non-peptide spacer, O=C(CCC(=O)[*:2])NCCCOCCOCCOCCCN[*:1]; Ttds″ = trioxatridecan-succinamic acid linker

How the values were obtained:
[1] = molecular target: T1, human FLT3 expressed on CHO cells (human, UniProt P36888 27-993); experiment: flow cytometry, biotin-labelled PepSP1462 detected with anti-streptavidin-AF488 antibody
T1 construct: whole, on cells; Negative control cell line; also called CHO huFLT3; CHO huFTL3
Protocol: (§2) Peptide PepSP1462, identified herein was biotin labeled. The biotin labeled peptide was detected using an anti-streptavidin antibody conjugated to AF488. The AF488-labeled peptide was detected directly.
(§3) Binding specificity of the labeled peptide for DLL3 was assessed using DLL3-negative cell lines. […] Cells were then washed twice with FACS buffer and incubated with an anti-streptavidin antibody conjugated to AF488 (Thermo Fisher). […] Cells were then washed twice with FACS buffer an resuspended in FACS buffer that contained 0.5 μg/ml propidium iodide. Cells were analyzed by flow cytometry, using an LSR Fortessa and FACSDiva software (Becton Dickinson) or Flow Jo (Flow Jo LLC).

[2] = molecular target: T2, mouse DLL3 expressed on CHO cells (mouse, UniProt O88516 33-592); experiment: flow cytometry, 100 µM biotin-labelled PepSP1462 detected with anti-streptavidin-AF488 antibody; CHO huFLT3 as negative control cell line
T2 construct: whole, on cells; also called CHO muDLL3
T2 sequence (looked up): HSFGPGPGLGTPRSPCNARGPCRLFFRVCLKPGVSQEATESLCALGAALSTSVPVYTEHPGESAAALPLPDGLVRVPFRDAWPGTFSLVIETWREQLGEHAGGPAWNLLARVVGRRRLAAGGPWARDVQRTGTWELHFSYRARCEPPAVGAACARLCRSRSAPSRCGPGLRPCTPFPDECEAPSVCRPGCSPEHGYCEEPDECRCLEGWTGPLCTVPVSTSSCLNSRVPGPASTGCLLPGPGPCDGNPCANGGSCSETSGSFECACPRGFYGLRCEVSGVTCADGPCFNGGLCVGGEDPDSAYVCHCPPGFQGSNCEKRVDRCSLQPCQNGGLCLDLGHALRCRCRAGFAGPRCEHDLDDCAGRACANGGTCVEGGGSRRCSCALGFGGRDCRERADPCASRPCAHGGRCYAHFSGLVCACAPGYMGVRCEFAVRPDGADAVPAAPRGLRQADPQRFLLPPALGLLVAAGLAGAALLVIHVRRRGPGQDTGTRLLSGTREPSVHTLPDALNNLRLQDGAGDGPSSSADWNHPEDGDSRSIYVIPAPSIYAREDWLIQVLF
Protocol: as §2, §3

[3] = molecular target: T3, rat DLL3 expressed on CHO cells (rat, UniProt O88671 33-589); experiment: as above
T3 construct: whole, on cells; also called CHO rtDLL3; High CHO rtDLL3
T3 sequence (looked up): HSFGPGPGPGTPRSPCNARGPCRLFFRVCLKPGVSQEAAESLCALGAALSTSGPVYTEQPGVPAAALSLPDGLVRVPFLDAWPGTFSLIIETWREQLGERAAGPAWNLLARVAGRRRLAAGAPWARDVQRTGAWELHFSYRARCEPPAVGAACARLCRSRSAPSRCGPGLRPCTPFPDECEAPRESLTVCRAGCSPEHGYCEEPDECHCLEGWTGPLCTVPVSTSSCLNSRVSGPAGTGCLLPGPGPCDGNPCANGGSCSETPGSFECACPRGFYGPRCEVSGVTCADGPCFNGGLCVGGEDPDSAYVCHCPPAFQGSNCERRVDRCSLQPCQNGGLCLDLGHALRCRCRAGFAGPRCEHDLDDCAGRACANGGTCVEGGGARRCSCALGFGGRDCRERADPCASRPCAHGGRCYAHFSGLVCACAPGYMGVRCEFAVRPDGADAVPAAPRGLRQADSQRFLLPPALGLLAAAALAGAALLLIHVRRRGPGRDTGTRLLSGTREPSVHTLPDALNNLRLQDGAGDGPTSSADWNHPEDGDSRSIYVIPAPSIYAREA
Protocol: as §2, §3

[4] = molecular target: T4, recombinant DLL3 ectodomain (rhDLL3-Fc) (human, UniProt Q9NYJ7 27-492, biotinylated (NHS-LC-LC-biotin) in the BLI and SPR assays); experiment: kinetic assay, method not told for this table (BLI, SPR or flow cytometry)
T4 construct: also called rDLL3-Fc; recombinant human DLL3 (rDLL3); not shown: Fc part
T4 sequence: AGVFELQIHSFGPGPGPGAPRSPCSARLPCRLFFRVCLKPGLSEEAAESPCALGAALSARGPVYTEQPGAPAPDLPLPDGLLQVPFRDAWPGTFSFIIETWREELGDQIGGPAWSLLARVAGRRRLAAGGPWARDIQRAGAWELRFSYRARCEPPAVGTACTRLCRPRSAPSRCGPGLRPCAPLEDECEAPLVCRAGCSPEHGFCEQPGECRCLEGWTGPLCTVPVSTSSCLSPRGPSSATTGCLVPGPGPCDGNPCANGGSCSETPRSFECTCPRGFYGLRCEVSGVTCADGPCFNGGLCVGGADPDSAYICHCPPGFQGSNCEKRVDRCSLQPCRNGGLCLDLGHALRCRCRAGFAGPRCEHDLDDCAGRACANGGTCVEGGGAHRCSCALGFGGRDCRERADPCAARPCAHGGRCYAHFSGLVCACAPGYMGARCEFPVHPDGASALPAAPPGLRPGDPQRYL

[5] = molecular target: T4, recombinant DLL3 ectodomain (rhDLL3-Fc); experiment: BLI (Octet), biotinylated rhDLL3-Fc on streptavidin sensors
Protocol: (§1) Binding kinetic assays were performed using Bio-layer interferometry (BLI) technology. The recombinant DLL3 ectodomain (rhDLL3-Fc) was biotinylated using EZ-Link Sulfo-NHS-LC-LC-Biotin Kit according to the manufacturer's protocol (Pierce by Thermo Fisher Scientific). The recombinant protein was incubated with an excess of NHS-LC-LC Biotin ester, in a molar ratio of 1:3 (protein: biotin), at 25° C. for 90 min. The un-reacted biotin ester was removed by subsequent buffer exchange on 0.5 ml Zeba spin desalting columns 7K MWCO (Pierce by Thermo Fisher Scientific).

[6] = molecular target: T4, recombinant DLL3 ectodomain (rhDLL3-Fc); experiment: BLI (Octet), biotinylated rhDLL3-Fc on streptavidin sensors; second listing of 1161 in Table 4, rounded
Protocol: as §1

[7] = molecular target: T4, recombinant DLL3 ectodomain (rhDLL3-Fc); experiment: SPR off-rate, single point (300 nM peptide), biotinylated rhDLL3-Fc on SA chip
Protocol: The off-rate screening of the peptides was done using a Biacore T200 instrument (Cytiva, Sweden). […] Peptides were diluted at 300 nM in PBS-P+1× buffer (Cytiva, Sweden) supplemented with 1% DMSO and 0.1% BSA, then injected over the ligand for five minutes at 30 μl/min, finally dissociation allowed for 1 h. Sensorgrams were analyzed by Biacore T200 Evaluation Software 3.0 (Cytiva, Sweden): specific binding was obtained by subtracting unspecific binding to naked biosensors and a zero analyte concentration made of binding assay buffer (double referencing). Kinetic parameters of koff were measured using a global fitting according to 1:1 Langmuir binding isotherm equation.

- binding result [1]: no binding (tested: 100 µM)
- binding result [2]: binds
- binding result [3]: binds
B1: PepSP1462 labeled with biotin (peptide)
peptide: Ac-AETVEFWWCNGNSENWTCTWGG-{Ttds-K(PEG4-DBCO)-NH2}
modifications: disulfide 9-18 (inferred); also: biotin label, site of attachment not given here
notes: also called PepSP1462-biotin peptide; labeled PepSP1462 peptide

- RT [4]: 369
Binder: Ac-AETVEFWGCTGTWGNETCWWGG-{Ttds-Lys-NH2} (disulfide 9-18 (inferred)) [PepSP1321]

- RT [4]: 189
Binder: Ac-AETVEFWWCNGNSENWTCTWGG-{Ttds-Lys-NH2} (disulfide 9-18 (inferred)) [PepSP1324]

- Kd [5]: 42.5 nM
- RT (residence time) [5]: 87.8 s
- Kd [6]: 43 nM
Binder: AETVEFWDCWGNTDDWTCTW-NH2 (disulfide 9-18 (inferred)) [PepSP1161]

- RT [4]: 199
Binder: Ac-AETVEFWWCNGNSENWTCTWGG-{Ttds-K(Ttds-Ttds)-NH2} (disulfide 9-18 (inferred), also called PspSP1342) [PepSP1342]

- koff [7]: 3.2e-05 s⁻¹
B2: PepSP1583 (peptide)
peptide: Ac-AETVEFWWCNGNSENWTCTWGG-{Ttds″-K(Ttds-Ttds-PEG3)}
modifications: disulfide 9-18 (inferred); not fully specified; printed as [Ac-AETVEFWWCNGNSENWTCTW-GG-Ttds-K(Ttds-Ttds-PEG3)]2-PEG4-DBCO-; also: dimer linked via PEG4-DBCO-FEA
notes: also called dimeric FEA derivative of PepSP1489
